Ends that are not written are not given here.

Test [1] deals with T1, xPSM (extracellular portion of human PSMA, Tag-xPSM digested with enterokinase, no affinity tags) (human, UniProt Q04609 44-750).
T1 construct: extracellular domain; also called purified xPSM; soluble xPSM protein
Put plainly: phage ELISA on xPSM.

In a further test the target is T2, PSMA on LNCaP cells (human, UniProt Q04609 1-750).
T2 construct: whole, on cells; Target is whole LNCaP cells; also called PSMA expressing LNCaP cells
Put plainly: phage binding to LNCaP cells, 10^8 PFU, BRASIL partitioning and titer. As for the experimental part:
FIG. 6 depicts the binding of individual phage clones to PSMA expressing LNCaP cells. 1.3×10⁵ harvested LNCaP cells were incubated with 10⁸ PFU of each individual phage for 20 minutes. Cell-bound phage were isolated by BRASIL partitioning and titered. Phage clones contained peptide sequences as follows: R5-C6: SEQ ID NO:2; R4-C9: SEQ ID NO:5; R5-XC1: SEQ ID NO:1; R3-A4: SEQ ID NO:95.
(§1) Cell monolayers were washed several times in PBS, and finally incubated five minutes in PBS at 37° C. Cells were knocked free, pelleted, and suspended in RPMI 1640+1% FBS at a concentration of 10⁶ cells per milliliter. 10⁸ PFU from each clone were incubated with 100 μl of cells at 37° C. for 20 minutes while rotating. For competitive inhibition, purified xPSM or BSA were added to the cells along with phage, and a larger concentration of 10¹⁰ PFU was applied. The cells were then centrifuged through 200 μl of 9:1 dibutyl phthalate:cyclohexane, previously described as BRASIL portioning (Giordano, R. J. et al. (2001) Nat. Med. 7:1249-1253, incorporated herein by reference). The tube was then snap frozen in liquid nitrogen to isolate the cell pellet. The cell pellets were then resuspended in 200 μl of log phage ER2738 cells and phage allowed to infect 1 hour at room temperature. A small aliquot was taken to determine the number of phage bound by dilution titer.

The target in test [2] is T3, Tag-xPSM fusion target protein (human, UniProt Q04609 44-750).
T3 construct: extracellular domain; they are put first here only as a guess from the type II topology; Made in Sf-9 cells; also called PSMA fusion protein
Put plainly: phage ELISA, Tag-xPSM immobilised on microtiter plates, 10^10 PFU, absorbance at 410 nm. The source says:
(§2) FIG. 5 depicts the binding of selected phage clones to purified extracellular PSMA. Tag-xPSM was immobilized on microtiter plates and targeted for binding with 10¹⁰ PFU of each individual phage. Bound phages were quantified by ELISA absorbance at 410 nm. R4-C9, R5-XC1, and R3-A4 bound with the following significance compared to insertless phage: p-value=0.005, 0.009, and 0.0001 respectively). Phage clones contained peptide sequences as follows: R5-C6: SEQ ID NO:2; R4-C9: SEQ ID NO:5; R5-XC1: SEQ ID NO:1; R3-A4: SEQ ID NO:95.
(§3) Target proteins were immobilized on 96 well tissue culture plates by incubation for 1-2 hours at room temperature or overnight at four degrees Celsius. Both phage and protein coated plate were blocked for 30 minutes with RPMI 1640+1% Bovine Serum Albumin (BSA) at room temperature. Phage were incubated with target in RPMI 1640+1% BSA for 1 hour at room temperature, wells were washed five times in PBS+0.05% Tween-20, and wells were incubated with 1:5000 HRP/anti-M13 monoclonal antibody (in PBS) for 1 hour. Wells were again washed five times in PBS+0.05% Tween-20, and signal detected by incubation in 1×ABTS Stock Solution (100 mg ABTS in 450 ml of 0.05 M Citric Acid, pH 4.0) and absorbance reading at 410 nm. […] Significance was calculated by two-tailed, two-sample equal variance test.

The target in test [3] is T1, xPSM (extracellular portion of human …). Description: competition: 380 nM soluble PSMA (xPSM) against LNCaP cells for R5-XC1 phage, 500 nM BSA as control. The procedure: FIG. 7 depicts the specific blocking of LNCaP phage binding by soluble xPSM protein. 10¹⁰ R5-XC1 phage or the round one phage pool were allowed to bind LNCaP cells in the presence of 380 nM PSMA or 500 nM BSA.
as §1

In test [4] the target is T3, Tag-xPSM fusion target protein. Put plainly: phage ELISA; R3-A4 stands only in FIG. 5, where Tag-xPSM was immobilised.
Excerpt: as §2, §3
(ELISA stands for enzyme-linked immunosorbent assay.)

T1 sequence (Q04609 44-750): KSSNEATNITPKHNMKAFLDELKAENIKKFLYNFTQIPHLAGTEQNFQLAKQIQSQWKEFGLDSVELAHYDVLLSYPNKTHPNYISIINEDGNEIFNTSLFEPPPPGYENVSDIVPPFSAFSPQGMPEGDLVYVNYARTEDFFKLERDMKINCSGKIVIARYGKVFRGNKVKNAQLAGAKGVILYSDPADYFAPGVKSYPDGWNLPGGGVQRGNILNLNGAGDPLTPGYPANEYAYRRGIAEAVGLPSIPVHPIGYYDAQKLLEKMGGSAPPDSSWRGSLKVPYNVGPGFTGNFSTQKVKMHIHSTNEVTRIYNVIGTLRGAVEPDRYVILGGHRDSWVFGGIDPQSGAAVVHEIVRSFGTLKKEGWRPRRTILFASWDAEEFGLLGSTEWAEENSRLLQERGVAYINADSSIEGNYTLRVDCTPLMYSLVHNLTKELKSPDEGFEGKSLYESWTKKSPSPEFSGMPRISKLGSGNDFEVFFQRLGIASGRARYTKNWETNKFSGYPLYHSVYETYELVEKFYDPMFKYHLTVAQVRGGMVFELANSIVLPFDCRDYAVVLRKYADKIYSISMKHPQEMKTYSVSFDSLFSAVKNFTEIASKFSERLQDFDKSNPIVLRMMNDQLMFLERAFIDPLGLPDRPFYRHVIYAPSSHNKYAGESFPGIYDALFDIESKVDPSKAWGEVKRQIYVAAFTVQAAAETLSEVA
T2 sequence (Q04609 whole entry): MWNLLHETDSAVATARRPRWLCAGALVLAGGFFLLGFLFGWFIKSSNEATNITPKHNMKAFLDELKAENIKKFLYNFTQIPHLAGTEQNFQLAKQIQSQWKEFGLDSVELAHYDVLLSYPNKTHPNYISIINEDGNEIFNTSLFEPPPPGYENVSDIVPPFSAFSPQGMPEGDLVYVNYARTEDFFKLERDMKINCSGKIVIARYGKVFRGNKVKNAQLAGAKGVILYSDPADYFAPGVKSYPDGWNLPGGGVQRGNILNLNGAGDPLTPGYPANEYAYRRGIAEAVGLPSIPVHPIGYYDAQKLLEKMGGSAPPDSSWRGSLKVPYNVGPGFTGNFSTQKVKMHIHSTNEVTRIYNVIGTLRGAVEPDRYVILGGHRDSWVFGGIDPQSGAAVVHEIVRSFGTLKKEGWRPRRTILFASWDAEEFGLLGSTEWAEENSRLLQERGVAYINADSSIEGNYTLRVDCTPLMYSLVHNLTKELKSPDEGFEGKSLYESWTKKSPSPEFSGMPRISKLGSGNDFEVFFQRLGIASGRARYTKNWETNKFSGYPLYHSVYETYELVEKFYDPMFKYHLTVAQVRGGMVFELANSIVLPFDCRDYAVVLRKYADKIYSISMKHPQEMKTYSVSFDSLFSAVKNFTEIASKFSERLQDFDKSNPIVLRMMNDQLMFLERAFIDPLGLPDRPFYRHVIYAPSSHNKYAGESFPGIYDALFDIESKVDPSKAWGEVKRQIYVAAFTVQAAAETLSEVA
T3 sequence (Q04609 44-750): as the sequence (Q04609 44-750) above

B1: SEQ ID NO 107 phage (M13 phage displaying CTPQSSDRC) (peptide)
chain: CTPQSSDRC
modifications: not fully specified (bridges); cysteine pairing not given here; also: displayed on M13 phage pIII coat protein
notes: Tested as whole phage; not shown: pIII coat protein of M13 filamentous bacteriophage (New England Biolabs CX7C library); junction between peptide and pIII
As to B1, the binding result in test [1] is recorded as “binds”.

B2: SEQ ID NO 106 phage (M13 phage displaying CQVRHSAQC) (peptide)
chain: CQVRHSAQC
modifications: not fully specified (bridges); cysteine pairing not given here; also: displayed on M13 phage pIII coat protein
notes: as for B1
For the molecule B2, the binding result in test [1] is listed as “binds”.

B3: SEQ ID NO 28 phage (M13 phage displaying CLSSNSSLC) (peptide)
chain: CLSSNSSLC
modifications: not fully specified (bridges); cysteine pairing not given here; also: displayed on M13 phage pIII coat protein
notes: Tested as whole phage; also called R3-C1; not shown: pIII coat protein of M13 filamentous bacteriophage (New England Biolabs CX7C library); junction between peptide and pIII
Take B3: the binding result in test [1] is “binds”.

B4: R5-XC1 phage (M13 phage displaying CQKHHNYLC) (peptide)
chain: CQKHHNYLC
modifications: not fully specified (bridges); cysteine pairing not given here; also: displayed on M13 phage pIII coat protein
notes: Disulfide-constrained heptapeptide flanked by cysteines, tested as whole phage; not shown: pIII coat protein of M13 filamentous bacteriophage (New England Biolabs CX7C library); junction between peptide and pIII
For the molecule B4, the binding result (with PSMA on LNCaP cells; in test [2]; in test [3]) was “binds” throughout.

B5: R3-A4 phage (M13 phage displaying CFPQSSARC) (peptide)
chain: CFPQSSARC
modifications: not fully specified (bridges); cysteine pairing not given here; also: displayed on M13 phage pIII coat protein
notes: as for B4
On to B5, for which the binding result (with PSMA on LNCaP cells; in test [4]) was “binds” in each case.

B6: SEQ ID NO 9 phage (M13 phage displaying CPSVNTKQC) (peptide)
chain: CPSVNTKQC
modifications: not fully specified (bridges); cysteine pairing not given here; also: displayed on M13 phage pIII coat protein
notes: Tested as whole phage; also called R5-C11; not shown: pIII coat protein of M13 filamentous bacteriophage (New England Biolabs CX7C library); junction between peptide and pIII
On to B6, for which the binding result in test [1] is “binds”.

B7: R5-C6 phage (M13 phage displaying CTITSKRTC) (peptide)
chain: CTITSKRTC
modifications: not fully specified (bridges); cysteine pairing not given here; also: displayed on M13 phage pIII coat protein
notes: as for B4
Consider B7, for which the binding result (in test [1]; with PSMA on LNCaP cells) was “binds” in each case.

For the origin of these results see patent US20070254316A1 (Johns Hopkins, published 2007).
